Laboratory results taken from patent US5851983.
Where two headings read alike, the source gives them in different places.

Tests used:
[1] = biological target: Bovine spleen trypsin (Sigma) (bovine) (UniProt P00760)
[2] = biological target: Polymorphonuclear leukocyte elastase from human sputum (EPC Co.; Funakoshi Yakuhin) (human) (UniProt P08246)
[3] = biological target: Bovine spleen trypsin (Sigma) (bovine) (UniProt P00760); remark: listed apart in the source
[4] = biological target: Polymorphonuclear leukocyte elastase from human sputum (EPC Co.; Funakoshi Yakuhin) (human) (UniProt P08246); remark: listed apart in the source
[5] = biological target: Bovine spleen trypsin (Sigma) (bovine) (UniProt P00760); remark: listed apart in the source
[6] = biological target: Polymorphonuclear leukocyte elastase from human sputum (EPC Co.; Funakoshi Yakuhin) (human) (UniProt P08246); remark: listed apart in the source
[7] = biological target: Calf pancreatic trypsin (Sigma) (calf (bovine)) (UniProt P00760)
Sequence of Calf pancreatic trypsin (Sigma) (calf (bovine)) (P00760 24-246): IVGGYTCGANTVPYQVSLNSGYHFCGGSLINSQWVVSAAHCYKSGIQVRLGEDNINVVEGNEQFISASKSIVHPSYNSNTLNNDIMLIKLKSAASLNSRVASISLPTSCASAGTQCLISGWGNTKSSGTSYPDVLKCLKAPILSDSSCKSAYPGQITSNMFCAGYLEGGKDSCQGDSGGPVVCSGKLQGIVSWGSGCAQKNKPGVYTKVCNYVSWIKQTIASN

[8] = biological target: Polymorphonuclear leukocyte elastase from human sputum (EPC Co.; Funakoshi Yakuhin) (human) (UniProt P08246); remark: listed apart in the source
[9] = biological target: Calf pancreatic chymotrypsin (Sigma) (calf (bovine)) (UniProt P00766)
[10] = biological target: Human plasma kallikrein (human) (UniProt P03952)
[11] = biological target: Human plasma plasmin (human) (UniProt P00747)
Sequence of Human plasma plasmin (human) (P00747 97-810 limits assumed): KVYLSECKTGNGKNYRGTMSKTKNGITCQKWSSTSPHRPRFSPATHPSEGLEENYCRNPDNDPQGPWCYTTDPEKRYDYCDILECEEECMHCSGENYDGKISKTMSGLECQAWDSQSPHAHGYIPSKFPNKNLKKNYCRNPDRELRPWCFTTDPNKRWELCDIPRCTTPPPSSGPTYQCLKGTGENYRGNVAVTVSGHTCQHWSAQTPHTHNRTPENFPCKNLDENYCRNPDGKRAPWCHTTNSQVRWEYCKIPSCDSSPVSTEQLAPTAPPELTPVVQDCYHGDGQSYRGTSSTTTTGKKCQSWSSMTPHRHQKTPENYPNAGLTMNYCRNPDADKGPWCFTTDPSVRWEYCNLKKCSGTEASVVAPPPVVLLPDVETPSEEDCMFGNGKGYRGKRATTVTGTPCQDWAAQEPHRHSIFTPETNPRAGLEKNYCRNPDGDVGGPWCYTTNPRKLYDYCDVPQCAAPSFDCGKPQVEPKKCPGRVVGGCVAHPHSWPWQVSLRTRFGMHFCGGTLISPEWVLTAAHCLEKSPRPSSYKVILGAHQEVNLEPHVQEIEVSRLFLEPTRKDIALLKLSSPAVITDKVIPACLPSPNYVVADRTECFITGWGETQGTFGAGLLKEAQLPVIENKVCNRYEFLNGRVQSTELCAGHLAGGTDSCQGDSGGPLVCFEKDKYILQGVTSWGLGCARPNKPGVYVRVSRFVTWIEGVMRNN

[12] = biological target: Human plasma thrombin (human) (UniProt P00734)
[13] = biological target: Porcine pancreatic elastase (Sigma) (porcine) (UniProt P00772)
Sequence of Porcine pancreatic elastase (Sigma) (porcine) (P00772 27-266): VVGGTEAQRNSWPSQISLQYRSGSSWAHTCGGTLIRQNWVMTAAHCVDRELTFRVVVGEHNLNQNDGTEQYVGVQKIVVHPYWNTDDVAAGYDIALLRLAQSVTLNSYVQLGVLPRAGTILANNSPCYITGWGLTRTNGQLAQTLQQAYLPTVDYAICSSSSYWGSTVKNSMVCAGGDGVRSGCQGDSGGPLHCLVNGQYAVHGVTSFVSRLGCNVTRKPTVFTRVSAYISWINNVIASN

Sequence of α1 -AT (Sigma) (P01009 25-418 limits assumed): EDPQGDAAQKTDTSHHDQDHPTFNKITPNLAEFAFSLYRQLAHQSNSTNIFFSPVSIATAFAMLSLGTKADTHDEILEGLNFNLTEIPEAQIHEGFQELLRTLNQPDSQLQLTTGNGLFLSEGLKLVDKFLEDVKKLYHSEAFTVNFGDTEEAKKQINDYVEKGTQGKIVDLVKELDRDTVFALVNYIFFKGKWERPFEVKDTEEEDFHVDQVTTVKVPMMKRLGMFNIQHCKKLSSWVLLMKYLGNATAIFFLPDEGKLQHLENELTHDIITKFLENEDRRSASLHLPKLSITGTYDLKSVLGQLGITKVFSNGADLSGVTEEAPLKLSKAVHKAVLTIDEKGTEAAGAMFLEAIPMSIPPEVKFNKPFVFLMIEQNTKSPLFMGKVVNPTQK
Sequence of Bovine spleen trypsin (Sigma) (bovine) (P00760 24-246): as the sequence (P00760 24-246) above
Sequence of Human secretory leukoprotease inhibitor (SLPI) (chain): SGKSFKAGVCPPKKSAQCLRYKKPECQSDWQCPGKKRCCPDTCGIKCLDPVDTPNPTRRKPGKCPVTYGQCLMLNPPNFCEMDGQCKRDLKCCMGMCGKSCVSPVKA
Sequence of (Arg^59 -Ala^107) SLPI (chain): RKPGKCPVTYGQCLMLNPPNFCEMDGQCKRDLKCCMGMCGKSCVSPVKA
Sequence of (Arg^58 -Ala^107) SLPI (chain): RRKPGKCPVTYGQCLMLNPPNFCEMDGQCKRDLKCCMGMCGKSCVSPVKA
Sequence of (Asn^55 -Ala^107) SLPI fragment polypeptide (chain): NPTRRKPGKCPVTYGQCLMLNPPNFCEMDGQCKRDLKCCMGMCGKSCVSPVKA

IC50 Value [3] [nM] | IC50 Value [4] [nM] | IC50 [5] [nM] | IC50 [6] [nM] | concentration of inhibitory protein which exhibits a 50% inhibition [7] [nM] | Substance | further results
 |  |  |  |  | (Arg^58 -Ala^107) SLPI | IC50 [1]: 2000 nM; IC50 [2]: 12 nM
2500 | 14 | 2000 | 12 |  | (Arg^59 -Ala^107) SLPI | 
 |  |  |  | 130 | (Asn^55 -Ala^107) SLPI fragment polypeptide | concentration of inhibitory protein which exhibits a 50% inhibition [8]: 1 nM
240 | 16 | 330 | 13 |  | Human secretory leukoprotease inhibitor (SLPI) | 
 |  |  |  | 200 | α1 -AT (Sigma) (from UniProt P01009) | concentration of inhibitory protein which exhibits a 50% inhibition [9]: 2 µM; concentration of inhibitory protein which exhibits a 50% inhibition [10]: > 2 µM; concentration of inhibitory protein which exhibits a 50% inhibition [11]: > 2 µM; concentration of inhibitory protein which exhibits a 50% inhibition [12]: > 2 µM; concentration of inhibitory protein which exhibits a 50% inhibition [13]: 300 nM
